Experimental data from article PMC8108093 (Cell, 2018).

Biological target: His6-REV7_(R124A), recombinant (human, UniProt Q9UI95 1-211, R124A)
Test: ITC

Sequence of His6-REV7_(R124A), recombinant (Q9UI95 whole entry R124A): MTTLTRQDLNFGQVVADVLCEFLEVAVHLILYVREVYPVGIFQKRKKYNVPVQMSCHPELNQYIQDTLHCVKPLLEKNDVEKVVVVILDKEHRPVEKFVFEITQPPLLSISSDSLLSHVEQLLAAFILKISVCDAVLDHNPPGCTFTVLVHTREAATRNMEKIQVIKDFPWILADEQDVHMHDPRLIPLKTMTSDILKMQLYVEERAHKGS

B1: RINN1_(28–83), recombinant (domain or fragment, human, UniProt Q6ZNX1 28-83, looked up)
chain: QDFPTRPLSRFIPWFPYDGSKLPLRPKRSPPVISEEAAEDVKQYLTISEHDAKSHS
- Kd: 15.8 nM
